Data taken from the supplement of paper PMC10567573.

B1: RHOBTB3 (parent)
chain: QLQSMPSRELASMNLDIVDLLKKA
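Note: lentivirally expressed fusions sorted by FACS into six bins by GFP to DsRed ratio, PSI derived from sequencing read proportions per bin multiplied by bin number.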

Variants of: B1
Assay: protein stability index of a GFP-peptide fusion (GPS, HEK-293T) (PSI 1-6); higher = more stable
Details: c terminus: a fixed tail appended
Work on QLQSMPSRELASMNLDIVDSLKKA yielded a protein stability index of 4.06. Variant QLQSMPSRELASMNLDIVDFLKKA has a protein stability index of 3.42. QLQSMPSRELASMNLDIVDELKKA showed a protein stability index of 4.84. Work on QLQSMPSRELASMNLDIVDMLKKA yielded a protein stability index of 3.75. With QLQSMPSRELASMNLDIVDWLKKA the protein stability index was 3.51. QLQSMPSRELASMNLDIVDPLKKA gave a protein stability index of 4.31. In the case of QLQSMPSRELASMNLDIVDRLKKA, the protein stability index is reported as 3.94. With QLQSMPSRELASMNLDIVDNLKKA the protein stability index was 3.71. Variant QLQSMPSRELASMNLDIVDVLKKA has a protein stability index of 2.9. For QLQSMPSRELASMNLDIVDTLKKA, the protein stability index was 3.96. QLQSMPSRELASMNLDIVDKLKKA gave a protein stability index of 4.33. Variant QLQSMPSRELASMNLDIVDILKKA has a protein stability index of 3.42. QLQSMPSRELASMNLDIVDCLKKA gave a protein stability index of 3.86. For QLQSMPSRELASMNLDIVDHLKKA, the protein stability index was 3.63. With QLQSMPSRELASMNLDIVDGLKKA the protein stability index was 4.62. QLQSMPSRELASMNLDIVDYLKKA gave a protein stability index of 3.95. With QLQSMPSRELASMNLDIVDDLKKA the protein stability index was 4.68. QLQSMPSRELASMNLDIVDQLKKA showed a protein stability index of 3.9. For QLQSMPSRELASMNLDIVDALKKA, the protein stability index was 3.52. For QLQSMPSRELASMNLDINDLLKKA, the protein stability index was 3.9. Work on QLQSMPSRELASMNLDICDLLKKA yielded a protein stability index of 3.69. QLQSMPSRELASMNLDIRDLLKKA gave a protein stability index of 2.73. Variant QLQSMPSRELASMNLDIGDLLKKA has a protein stability index of 3.65. Variant QLQSMPSRELASMNLDIFDLLKKA has a protein stability index of 2.39. Work on QLQSMPSRELASMNLDITDLLKKA yielded a protein stability index of 3.77. With QLQSMPSRELASMNLDISDLLKKA the protein stability index was 4.08. QLQSMPSRELASMNLDIWDLLKKA showed a protein stability index of 2.61. In the case of QLQSMPSRELASMNLDIDDLLKKA, the protein stability index is reported as 3.96. Variant QLQSMPSRELASMNLDIQDLLKKA has a protein stability index of 3.89. QLQSMPSRELASMNLDIEDLLKKA showed a protein stability index of 4.19. For QLQSMPSRELASMNLDILDLLKKA, the protein stability index was 3.37. For QLQSMPSRELASMNLDIKDLLKKA, the protein stability index was 3.21. QLQSMPSRELASMNLDIIDLLKKA gave a protein stability index of 3.28. In the case of QLQSMPSRELASMNLDIMDLLKKA, the protein stability index is reported as 3.41. QLQSMPSRELASMNLDIPDLLKKA gave a protein stability index of 3.21. QLQSMPSRELASMNLDIYDLLKKA showed a protein stability index of 2.6. QLQSMPSRELASMNLDIHDLLKKA gave a protein stability index of 3.5. Variant QLQSMPSRELASMNLDIADLLKKA has a protein stability index of 4.01. Variant QLQSMPSRELASMNLEIVDLLKKA has a protein stability index of 3.63. For QLQSMPSRELASMNLRIVDLLKKA, the protein stability index was 2.5. QLQSMPSRELASMNLLIVDLLKKA showed a protein stability index of 2.63. For QLQSMPSRELASMNLQIVDLLKKA, the protein stability index was 3.57. QLQSMPSRELASMNLYIVDLLKKA showed a protein stability index of 2.62. QLQSMPSRELASMNLVIVDLLKKA gave a protein stability index of 2.22. With QLQSMPSRELASMNLHIVDLLKKA the protein stability index was 2.76. Work on QLQSMPSRELASMNLCIVDLLKKA yielded a protein stability index of 3.25. Variant QLQSMPSRELASMNLKIVDLLKKA has a protein stability index of 2.91. QLQSMPSRELASMNLSIVDLLKKA gave a protein stability index of 3.23. QLQSMPSRELASMNLFIVDLLKKA showed a protein stability index of 2.09. QLQSMPSRELASMNLAIVDLLKKA gave a protein stability index of 2.15. For QLQSMPSRELASMNLMIVDLLKKA, the protein stability index was 2.53. For QLQSMPSRELASMNLPIVDLLKKA, the protein stability index was 2.75. Work on QLQSMPSRELASMNLGIVDLLKKA yielded a protein stability index of 3.63. In the case of QLQSMPSRELASMNLIIVDLLKKA, the protein stability index is reported as 2.67. For QLQSMPSRELASMNLTIVDLLKKA, the protein stability index was 3.05. With QLQSMPSRELASMNLNIVDLLKKA the protein stability index was 2.88. With QLQSMPSRELASMNLDIVDLLKGA the protein stability index was 3.16. QLQSMPSRELASMNLDIVDLLKDA showed a protein stability index of 4.03. With QLQSMPSRELASMNLDIVDLLKSA the protein stability index was 3.05. With QLQSMPSRELASMNLDIVDLLKQA the protein stability index was 3.36. In the case of QLQSMPSRELASMNLDIVDLLKTA, the protein stability index is reported as 3.4. For QLQSMPSRELASMNLDIVDLLKFA, the protein stability index was 2.33. QLQSMPSRELASMNLDIVDLLKHA gave a protein stability index of 3.05. Variant QLQSMPSRELASMNLDIVDLLKCA has a protein stability index of 2.57. Work on QLQSMPSRELASMNLDIVDLLKNA yielded a protein stability index of 3.97. With QLQSMPSRELASMNLDIVDLLKPA the protein stability index was 3.22. QLQSMPSRELASMNLDIVDLLKIA gave a protein stability index of 2.48. For QLQSMPSRELASMNLDIVDLLKVA, the protein stability index was 2.81. Work on QLQSMPSRELASMNLDIVDLLKRA yielded a protein stability index of 3.52. QLQSMPSRELASMNLDIVDLLKMA showed a protein stability index of 2.32. Variant QLQSMPSRELASMNLDIVDLLKAA has a protein stability index of 2.92. QLQSMPSRELASMNLDIVDLLKEA showed a protein stability index of 3.69. QLQSMPSRELASMNLDIVDLLKLA gave a protein stability index of 2.58. In the case of QLQSMPSRELASMNLDIVCLLKKA, the protein stability index is reported as 2.96. QLQSMPSRELASMNLDIVELLKKA showed a protein stability index of 3.37. QLQSMPSRELASMNLDIVYLLKKA gave a protein stability index of 2.28. For QLQSMPSRELASMNLDIVNLLKKA, the protein stability index was 3.15. With QLQSMPSRELASMNLDIVALLKKA the protein stability index was 3. Variant QLQSMPSRELASMNLDIVRLLKKA has a protein stability index of 2.99. QLQSMPSRELASMNLDIVGLLKKA gave a protein stability index of 2.52. QLQSMPSRELASMNLDIVVLLKKA showed a protein stability index of 2.16. Variant QLQSMPSRELASMNLDIVTLLKKA has a protein stability index of 2.85. Variant QLQSMPSRELASMNLDIVMLLKKA has a protein stability index of 2.09. QLQSMPSRELASMNLDIVKLLKKA gave a protein stability index of 3.08. With QLQSMPSRELASMNLDIVSLLKKA the protein stability index was 3.45. Work on QLQSMPSRELASMNLDIVILLKKA yielded a protein stability index of 1.86. In the case of QLQSMPSRELASMNLDIVWLLKKA, the protein stability index is reported as 2.16. With QLQSMPSRELASMNLDIVPLLKKA the protein stability index was 2.83. QLQSMPSRELASMNLDIVFLLKKA showed a protein stability index of 2.01. In the case of QLQSMPSRELASMNLDIVHLLKKA, the protein stability index is reported as 2.93. QLQSMPSRELASMNLDIVLLLKKA gave a protein stability index of 1.48. Variant QLQSMPSRELASMNLDIVQLLKKA has a protein stability index of 3.58. For QLQSMPSRELASMNLDIVDLLCKA, the protein stability index was 2.76. With QLQSMPSRELASMNLDIVDLLHKA the protein stability index was 3.67.
